Source: patent US8008452B2, “Phosphorylated Ndr kinase” (Novartis Forschungesstiftung, Zweigniederlassung Friedrich …, priority 2002, dated 2011)

How the values were obtained:
HA-NDR1 = HA-NDR1 kinase assay on 12CA5 immunoprecipitates from transfected, treated COS-1 cells; format: cell-based, human; conditions: COS1 cells cotransfected with HA-NDR1, treated with OA; versus empty vector
Experimental: In some experiments, the cells were treated for 60 min with 1 microM okadaic acid in 0.1% N,N-dimethylformamide (DMF) (Alexis Corp.), 50 microM BAPTA-AM (1,2-bis (o-aminophenoxy) ethane-N,N,N′,N′-tetraacetic acid tetra (acetoxy-methyl)ester) in 0.1% diimethylsulfoxide (DMSO; Sigma), or 20 microM thapsigargin in 0.1% DMSO (Alomone) 24 hours after transfection.
Transfected and treated COS-1 cells were washed once with ice-cold PBS, and harvested by rubber policeman in 1 ml ice-cold PBS containing 1 mM Na3VO4 and 20 mM beta-glycerophosphate before lysis in 500 microliters of IP buffer (20 mM Tris-HCl pH 8.0, 150 mM NaCl, 1% Nonidet P-40, 10% glycerol, 1 mM Na3VO4, 20 mM beta-glycerolphosphate, 1 microM microcystin-LR, 50 mM NaF, 0.5 mM PMSF, 4 microM leupeptin, 1 mM benzamidine, and 1 tablet/10 ml IP of Complete protease inhibitors (Roche)). Lysates were centrifuged at 20 000 g for 20 min and triplicate aliquots (200 microg) of supernatant were precleared with protein A-Sepharose (Amersham Pharmacia Biotech) for 60 min and mixed subsequently for 3 h at 4° C. with 12CA5 antibody prebound to protein A-Sepharose (˜1 microg antibody bound to 2 microl beads). The beads were then washed twice with IP buffer, once for 10 min with IP buffer containing 1 M NaCl, once again for 10 min with IP buffer, and finally twice with 20 mM Tris-HCl pH 7.5 containing 4 microM leupeptin and 1 mM benzamidine. […] After 60 min incubation at 30° C., 15 microliters of supernatant were removed, and phosphate incorporation into the substrate peptide determined as described for GST-NDR1 above. […]
To test whether hMOB1 plays a role in NDR activation, myc-hMOB1 or the empty vector was cotransfected with HA-NDR1 in COS1 cells and treated with OA. […] The reactions were resolved on a 10% SDS PAGE and the radioactivity visualised by using a phosphoimager.

HA-NDR = target: T1, HA-NDR (Homo sapiens, UniProt Q15208); assay: Autophosphorylation of immunoprecipitated HA-NDR with added GST-MOB or GST; format: biochemical; conditions: added to HA-NDR kinase reactions; GST as control
T1 construct: expressed in transfected cells; host or cells: COS-1 (HA-NDR1)
Experimental: To test whether hMOB1 plays a role in NDR activation, myc-hMOB1 or the empty vector was cotransfected with HA-NDR1 in COS1 cells and treated with OA. 12CA5 immunoprecipitates were then assayed using the peptide kinase assay for HA-NDR kinase activity. […] GST-MOB and GST respectively was added to immunoprecipitated HA-NDR and kinase reaction were performed. The reactions were resolved on a 10% SDS PAGE and the radioactivity visualised by using a phosphoimager.

GST-NDR1 [1] = target: T2, GST-NDR1 (Homo sapiens, UniProt Q15208); assay: GST-NDR1 in vitro autophosphorylation, incorporated 32P by Cerenkov counting; format: biochemical; conditions: on both Ser281 and Thr444
T2 construct: made in house; host or cells: E. coli BL21-DE3-pRep4
Experimental: BL21-DE3-pRep4 E. coli strain was transformed with the pGEX-2T_NDR1 wild type or mutant plasmids. BL21-DE3 is a protease-deficient E. coli strain and pRep4 is a Laclq repressor-bearing plasmid both available commercially. Optionally, if desired, an E. coli strain comprising GroESL can be used, which expresses a chaperone protein that stabilizes the kinase. Mid-logarithmic phase cells were induced with 0.5 mM isopropyl beta-D-thiogalactopyranoside (IPTG) for 4 hours at 30° C. Bacteria were lysed using a French press in the presence of 1 mg/ml lysosyme, and the fusion proteins were purified on glutathione-agarose (Amersham Pharmacia Biotech) as described by the manufacturers. Recombinant proteins were assayed for kinase activity as described below and autophosphorylation was determined after SDS-PAGE separation either by Cerenkov counting or by exposure to a PhosphorImager screen followed by analysis with ImageQuant software (Molecular Dynamics).
In brief, 1 microgram of purified GST-NDR1 (in solution ˜0.5 microM) wild type, kinase dead (K118A), and alanine mutants of phosphorylation residues Thr74, Ser281, and Thr444 were autophosphorylated for 2 hours in vitro without further additions or in the presence of 1 mM CaCl2 and 10 microM bovine S100B. Proteins were visualized on SDS gels using Coomassie Blue R-350 stained SDS-PAGE gel, and [gamma-^32P]ATP-labelled proteins were visualized by autoradiography of the gels developed on a Phosphorimager screen. The amount of incorporated ^32P was quantified by Cerenkov counting.
Target sequence in this assay (Q15208 2-465): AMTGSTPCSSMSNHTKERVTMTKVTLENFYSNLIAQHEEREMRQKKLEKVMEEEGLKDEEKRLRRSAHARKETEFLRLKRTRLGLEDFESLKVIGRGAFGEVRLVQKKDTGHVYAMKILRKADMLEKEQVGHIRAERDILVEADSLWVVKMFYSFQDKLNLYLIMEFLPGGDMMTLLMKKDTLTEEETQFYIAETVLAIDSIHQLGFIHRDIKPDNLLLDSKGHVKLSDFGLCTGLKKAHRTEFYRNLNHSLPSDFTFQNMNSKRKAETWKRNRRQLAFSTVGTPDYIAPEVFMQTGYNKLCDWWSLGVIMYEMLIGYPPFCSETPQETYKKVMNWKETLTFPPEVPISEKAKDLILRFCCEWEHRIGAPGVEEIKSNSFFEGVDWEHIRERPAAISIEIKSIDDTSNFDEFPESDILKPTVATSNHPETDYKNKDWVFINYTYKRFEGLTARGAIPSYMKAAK

GST-NDR1 [2] = target: T2, GST-NDR1; assay: GST-NDR1 kinase assay (peptide kinase assay); format: biochemical
Experimental: 1 microgram of purified recombinant GST-NDR1 wild type and mutants (without further treatment or autophosphorylated for 2 h in the presence or absence of 1 mM CaCl2 and […] (Sigma)) were assayed in 20 microliter of reaction mixture containing 20 mM Tris-HCl pH 7.5, 10 mM MgCl2, 1 mM DTT, 100 microM [gamma-^32P]ATP (˜0.5 microCi/microliter), and 1 mM NDR1 substrate peptide ([…]; SEQ ID NO:22). After 30 mins incubation at 30° C., reactions were stopped with 50 mM EDTA, and 10 microliters of reaction mixture were spotted onto 2 cm^2 squares of P81 phosphocellulose paper (Whatman). These were subsequently washed for 4×5 min and 3×20 min in 1% phosphoric acid and once in acetone before counting in a liquid scintillation counter. One unit of NDR1 activity was defined as the amount which catalyses the phosphorylation of 1 nmol peptide substrate in 1 min.
Specific activity of GST-NDR1 mutants was also measured by a peptide kinase assay as described above. For this purpose, 1 microgram of purified GST-NDR1 wild type and alanine mutants were left without further treatment or autophosphorylated for 2 h in the presence or absence of 1 mM CaCl2 and […].
Target sequence in this assay (Q15208 whole entry): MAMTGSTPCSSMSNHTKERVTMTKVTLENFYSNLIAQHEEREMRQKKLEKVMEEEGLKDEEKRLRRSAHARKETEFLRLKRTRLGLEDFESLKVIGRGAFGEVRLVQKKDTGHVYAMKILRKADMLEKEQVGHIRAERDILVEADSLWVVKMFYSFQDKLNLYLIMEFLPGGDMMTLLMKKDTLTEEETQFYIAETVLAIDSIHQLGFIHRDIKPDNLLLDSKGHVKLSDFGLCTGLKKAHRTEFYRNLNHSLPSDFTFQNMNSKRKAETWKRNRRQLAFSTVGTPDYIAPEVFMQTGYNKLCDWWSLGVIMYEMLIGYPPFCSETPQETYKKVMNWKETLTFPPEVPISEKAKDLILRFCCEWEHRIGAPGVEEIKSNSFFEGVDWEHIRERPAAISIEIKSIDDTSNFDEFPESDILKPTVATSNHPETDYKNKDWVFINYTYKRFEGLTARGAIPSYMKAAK

GST-NDR1 [3] = assay: Immunodetection of GST-NDR1 phosphorylated on Ser281 or Thr444 after in vitro autophosphorylation; format: biochemical, human; conditions: in vitro autophosphorylation with or without Ca2+/S100B
Experimental: Either 1 microgram GST-NDR1 or HA-NDR1 immunoprecipitated from 100 microgram COS-1 detergent extracts as described above was separated on 10% SDS-PAGE and immunoblotted 2 h at RT or overnight at 4° C. with anti-Ser281P antisera (1:1000) in the presence of 50 microg/ml competing unphosphopeptide or anti-Thr444P purified antibody (1:500). Both antibodies were detected with horseradish peroxidase-conjugated donkey anti-rabbit Ig antibody (Amersham biosciences) and developed by ECL (chemiluminescence; Amersham Pharmacia Biotech).
To reliably quantify the effect of S100B on NDR1 phosphorylation status, rabbit polyclonal antibodies were raised against phosphoepitopes comprising Ser281 or Thr444. GST-NDR1 mutants were treated essentially as described in Example 2 and detected either with anti-NDR1_C-term antiserum or polyclonal antibodies recognising NDR1 phosphorylated on Ser281 or Thr444.

NDR2 [4] = target: T3, NDR2 (Homo sapiens, UniProt Q9Y2H1); assay: GST-NDR2 in vitro autophosphorylation with Ca2+/S100B; format: biochemical; conditions: after 4 hours of incubation
T3 construct: made in house; host or cells: E. coli (inferred from b139 and b74)
Experimental: (§1) All other procedures (including bacterial expression, kinase assays, immunodetection and mass spectrometry) were carried out essentially as described in the Methodology section above.
(§2) The sequence conservation between NDR1 and NDR2 also encompasses the previously defined S100 binding domain of NDR1. Therefore, the in vitro effect of Ca2+/S100B on NDR2 activity was measured in a time and concentration dependent manner. Ca2+/S100B increases the rate of NDR2 autophosphorylation by ˜2-fold after 4 hours of incubation, as measured by mass spectrometry anlaysis, and it stimulates the specific NDR activity in a concentration dependent manner up to ˜4-fold. […] After in vitro incubation of GST-NDR2 in the presence and absence of Ca2+/S100B, the proteins were digested with trypsin, and the resultant mixture was analysed by ESI-MS-MS in a −79 precursor scan, measuring the mass charge ratio (m/z) of all peptide species that liberate a single phosphate group after fragmentation. The identity of 5 NDR2 derived phosphopeptides could be determined in both samples, the GST-NDR2 and the GST-NDR2/Ca2+/S100B.

NDR2 [5] = target: T3, NDR2; assay: NDR2 specific kinase activity in vitro with Ca2+/S100B; format: biochemical; conditions: concentration dependent
Experimental: as §1, §2

T3 sequence (Q9Y2H1 whole entry, one chain of several): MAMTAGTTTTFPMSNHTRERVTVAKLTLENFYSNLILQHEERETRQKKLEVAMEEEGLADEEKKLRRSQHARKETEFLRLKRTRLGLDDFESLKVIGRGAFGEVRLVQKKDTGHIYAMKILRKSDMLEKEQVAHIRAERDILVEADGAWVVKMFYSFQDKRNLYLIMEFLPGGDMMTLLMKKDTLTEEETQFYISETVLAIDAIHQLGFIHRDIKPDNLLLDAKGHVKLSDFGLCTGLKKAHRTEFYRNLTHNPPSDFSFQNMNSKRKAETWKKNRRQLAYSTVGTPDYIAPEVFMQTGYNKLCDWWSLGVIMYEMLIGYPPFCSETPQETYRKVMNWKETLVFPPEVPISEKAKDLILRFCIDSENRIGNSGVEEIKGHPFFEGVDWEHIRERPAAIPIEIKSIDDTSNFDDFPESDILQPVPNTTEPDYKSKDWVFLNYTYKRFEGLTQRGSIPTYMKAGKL
T1 sequence (Q15208 whole entry, one chain of several): as the sequence (Q15208 whole entry) above

B1: hMOB1: human MOB1 (GI: 11691898, SEQ ID NO:5), myc-tagged, cotransfected with HA-NDR1 (protein)
chain: MSFLFSSRSSKTFKPKKNIPEGSHQYELLKHAEATLGSGNLRQAVMLPEGEDLNEWIAVNTVDFFNQINMLYGTITEFCTEASCPVMSAGPRYEYHWADGTNIKKPIKCSAPKYIDYLMTWVQDQLDDETLFPSKIGVPFPKNFMSVAKTILKRLFRVYAHIYHQHFDSVMQLQEEAHLNTSFKHFIFFVQEFNLIDRRELAPLQELIEKLGSKDR
modifications: left off: small tags and cut ends
HA-NDR1
  stimulation of OA stimulated NDR kinase activity by cotransfected myc-hMOB1: two to threefold stimulation

B2: GST-hMOB1: GST fusion of hMOB1 added to HA-NDR kinase reactions (protein)
chain: B1 chain
modifications: left off: a dimerising Fc or GST
notes: GST fusion of hMOB1 added to HA-NDR kinase reactions
HA-NDR
  effect on NDR autophosphorylation activity: stimulated NDR autophosphorylation activity

B3: S100B: bovine S100B, EF-hand Ca2+-binding protein, added with 1 mM CaCl2 (protein)
chain: SELEKAVVALIDVFHQYSGREGDKHKLKKSELKELINNELSHFLEEIKEQEVVDKVMETLDSDGDGECDFQEFMAFVAMITTACHEFFEHE
GST-NDR1 [1]
  increase in autophosphorylation of wild-type GST-NDR1 on addition of S100B: ~2 fold
GST-NDR1 [2]
  increase in kinase activity of wild-type GST-NDR1 on addition of S100B: ~5 fold
GST-NDR1 [3]
  phosphorylation of GST-NDR1 on Ser281 and Thr444 (phosphospecific antibodies): enhance phosphorylation on both Ser281 and Thr444
NDR2 [4]
  increase of the rate of NDR2 autophosphorylation: ~2 fold
NDR2 [5]
  stimulation of specific NDR activity (NDR2): ~4 fold
